We go through two molecules from US20020081652A1 (YEDA RESEARCH AND DEVELOPMENT, published 2002).

One test addresses mAb 198. In words: competition ELISA: fragment preincubated with mAb 198, binding of mAb 198 to coated Torpedo AChR read. For orientation: ELISA stands for enzyme-linked immunosorbent assay.
The target in a further test is T1, α-bungarotoxin (UniProt P60615 22-95).
T1 sequence: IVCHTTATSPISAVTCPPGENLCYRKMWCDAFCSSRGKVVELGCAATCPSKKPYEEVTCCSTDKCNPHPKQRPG
Kind of test: blot overlay with 125I-α-BTX, 20 µg fragment.

Protocol for mAb 198: Microtiter plates were coated with Torpedo AChR (1 μg/ml) in PBS and incubated overnight at 4° C.

B1: Hα1-205 expressed with no fusion partner (receptor)
chain: SEHETRLVAKLFKDYSSVVRPVEDHRQVVEVTAGLQLIQLINVDEVNQIVTTNVRLKQGDMVDLPRPSCVTLGVPLFSHLQDEQWVDYNLKWNPDDYGGVKKIHIPSEKIWRPDLVLYNNADGDFAIVKFTKVLLQYTGHITWTPPAIFKSYCEIIVTHFPFDEQNCSMKLGTWTYDGSVVAINPESDQPDLSNFMESGEWVIKESRGWKHSVTYSCCPDTPYLDITYHF
notes: The 5' primer adds an initiation codon (and a Gly codon) before residue 1; also called 'less native' fragment
The IC50 is the concentration at which inhibition is half-maximal. Read a low IC50 as higher potency. In the case of B1, the IC50 in the test with mAb 198 stood at 3.3 µM.

B2: Hα1-210 fused to thioredoxin (Trx-Hα1-210) (receptor)
chain: SEHETRLVAKLFKDYSSVVRPVEDHRQVVEVTAGLQLIQLINVDEVNQIVTTNVRLKQGDMVDLPRPSCVTLGVPLFSHLQDEQWVDYNLKWNPDDYGGVKKIHIPSEKIWRPDLVLYNNADGDFAIVKFTKVLLQYTGHITWTPPAIFKSYCEIIVTHFPFDEQNCSMKLGTWTYDGSVVAINPESDQPDLSNFMESGEWVIKESRGWKHSVTYSCCPDTPYLDITYHFVMQRL
notes: Solubilised from inclusion bodies in 9 M urea and dialysed; also called Trx-H1α-210; 'more native' fragment; not shown: thioredoxin (Trx) encoded by the pThioHis-A vector (Invitrogen); the vector's thioredoxin may
Consider B2, for which, in the test with α-bungarotoxin, the binding result was “binds”. Further, the IC50 with mAb 198 stood at 0.3 µM.
